From article PMC4558008, “Yeast Mitochondrial Transcription Factor Mtf1 Determines the Precision of Promoter-Directed Initiation of RNA Polymerase Rpo41” (PLoS ONE, 2015) come the findings set out here.

The labels stand for the following.
B1: Rpo41 ΔN393 (N-terminal 393 residues removed, 958 aa) (domain or fragment, yeast, UniProt P13433 394-1351, looked up)
chain: SLPTLEEKKAFESALNIFNQDRQKVLENRATEAARERWKHDFEEAKARGDISIEKNLNVKLWKWYNEMLPLVKEEINHCRSLLSEKLSDKKGLNKVDTNRLGYGPYLTLIDPGKMCVITILELLKLNSTGGVIEGMRTARAVISVGKAIEMEFRSEQVLKSESQAFRDVNKKSPEFKKLVQNAKSVFRSSQIEQSKILWPQSIRARIGSVLISMLIQVAKVSVQGVDPVTKAKVHGEAPAFAHGYQYHNGSKLGVLKIHKTLIRQLNGERLIASVQPQLLPMLVEPKPWVNWRSGGYHYTQSTLLRTKDSPEQVAYLKAASDNGDIDRVYDGLNVLGRTPWTVNRKVFDVVSQVWNKGEGFLDIPGAQDEMVLPPAPPKNSDPSILRAWKLQVKTIANKFSSDRSNRCDTNYKLEIARAFLGEKLYFPHNLDFRGRAYPLSPHFNHLGNDMSRGLLIFWHGKKLGPSGLKWLKIHLSNLFGFDKLPLKDRVAFTESHLQDIKDSAENPLTGDRWWTTADKPWQALATCFELNEVMKMDNPEEFISHQPVHQDGTCNGLQHYAALGGDVEGATQVNLVPSDKPQDVYAHVARLVQKRLEIAAEKGDENAKILKDKITRKVVKQTVMTNVYGVTYVGATFQIAKQLSPIFDDRKESLDFSKYLTKHVFSAIRELFHSAHLIQDWLGESAKRISKSIRLDVDEKSFKNGNKPDFMSSVIWTTPLGLPIVQPYREESKKQVETNLQTVFISDPFAVNPVNARRQKAGLPPNFIHSLDASHMLLSAAECGKQGLDFASVHDSYWTHASDIDTMNVVLREQFIKLHEVDLVLRLKEEFDQRYKNYVKIGKLKRSTDLAQKIIRIRKDLSRKLGRSTTLADEIYFEKKRQELLNSPLIEDRNVGEKMVTTVSLFEDITDLDALELENGGDENSGMSVLLPLRLPEIPPKGDFDVTVLRNSQYFFS
notes: printed length 958 aa (theoretical 111 kDa); source: E. coli Rosetta cells, purified (same method as His-Rpo41: Ni-NTA, Superdex 200 gel filtration)
B2: Yeast mitochondrial transcription factor Mtf1 (His-Mtf1) (natural protein, UniProt P14908 2-341, looked up)
chain: SVPIPGIKDISKLKFFYGFKYLWNPTVYNKIFDKLDLTKTYKHPEELKVLDLYPGVGIQSAIFYNKYCPRQYSLLEKRSSLYKFLNAKFEGSPLQILKRDPYDWSTYSNLIDEERIFVPEVQSSDHINDKFLTVANVTGEGSEGLIMQWLSCIGNKNWLYRFGKVKMLLWMPSTTARKLLARPGMHSRSKCSVVREAFTDTKLIAISDANELKGFDSQCIEEWDPILFSAAEIWPTKGKPIALVEMDPIDFDFDVDNWDYVTRHLMILKRTPLNTVMDSLGHGGQQYFNSRITDKDLLKKCPIDLTNDEFIYLTKLFMEWPFKPDILMDFVDMYQTEHSG
notes: Mtf1, yeast mitochondrial transcription factor (theoretical 40 kDa); the printed PCR primers run from the codon after the start methionine (TCT GTT CCA ATC CCT: S V P I P) to the stop codon; Subcloned into pTrcHisC (Invitrogen) between NheI and HindIII; the vector's leader with the His tag precedes the protein; source: E. coli Rosetta cells, purified

In test [1] the target is B2. Put plainly: cell-based or functional assay.
Test [2] deals with B2. Nature of the test: SEC; analytical gel filtration (Superdex), 1 μM Rpo41 (wild-type or ΔN393), 2 μM Mtf1 and 3 μM 20 bp duplex DNA with the 14S rRNA promoter; peak fractions on SDS-PAGE with densitometry; apparent Kd in the presence of DNA; 40 mM Tris-HCl pH 7.9, 150 mM NaCl, 0.1% Tween 20, 15% glycerol, 1 mM EDTA, 1 mM DTT. Conditions: both partners purified. Background: SEC sorts molecules by how far they enter the pores of the column.

Test [3] concerns the target B1. Put plainly: SEC; analytical gel filtration (Superdex), 2.8 μM Rpo41 (wild-type or ΔN393) with 5.6 μM Mtf1, no DNA; peak fractions on SDS-PAGE with densitometry; apparent Kd; 40 mM Tris-HCl pH 7.9, 150 mM NaCl, 0.1% Tween 20, 15% glycerol, 1 mM EDTA, 1 mM DTT. As to conditions: both partners purified.
Test [4] deals with B1. Nature of the test: SEC; analytical gel filtration (Superdex), 1 μM Rpo41 (wild-type or ΔN393), 2 μM Mtf1 and 3 μM 20 bp duplex DNA with the 14S rRNA promoter; peak fractions on SDS-PAGE with densitometry; apparent Kd in the presence of DNA; 40 mM Tris-HCl pH 7.9, 150 mM NaCl, 0.1% Tween 20, 15% glycerol, 1 mM EDTA, 1 mM DTT. Conditions: both partners purified.
Test [5] addresses B2. Put plainly: SEC; analytical gel filtration (Superdex), 2.8 μM Rpo41 (wild-type or ΔN393) with 5.6 μM Mtf1, no DNA; peak fractions on SDS-PAGE with densitometry; apparent Kd; 40 mM Tris-HCl pH 7.9, 150 mM NaCl, 0.1% Tween 20, 15% glycerol, 1 mM EDTA, 1 mM DTT. Conditions: both partners purified.
Test [6] concerns the target B2. Described as above. As to conditions: both partners purified. The source holds these as a separate data set.
Test [7] has as its target B2. Nature of the test: SEC; analytical gel filtration (Superdex), 1 μM Rpo41 (wild-type or ΔN393), 2 μM Mtf1 and 3 μM 20 bp duplex DNA with the 14S rRNA promoter; peak fractions on SDS-PAGE with densitometry; apparent Kd in the presence of DNA; 40 mM Tris-HCl pH 7.9, 150 mM NaCl, 0.1% Tween 20, 15% glycerol, 1 mM EDTA, 1 mM DTT. As to conditions: both partners purified. This is another data set of the same source.

Broadly, the stoichiometry N is a count of units in the complex or per binding partner.

Turning to B1, the “activity of the holoenzyme on the 70 bp linear 14S rRNA promoter template, relative to the wild-type enzyme” value in test [1] was 20%. Besides, the “stoichiometry N” value in test [2] turned out to be 1.

In the case of B2, the Kd was determined as 13000 nM in test [3] and 600 nM in test [4].

B3: Yeast mitochondrial RNA polymerase Rpo41, wild-type (His-Rpo41) (enzyme)
chain: MLRPAYKSLVKTSLLQRRLISSKGSKLFKPSPDSTSTILISEDPLVTGSSPTSSTTSGIISSNDFPLFNKNRKDAKSSISYQWKNPSELEFDPFNKSHASAVTSMTRTRDVMQLWSLLEACLQSNLMKRAFSILESLYLVPEHKQRFIEDYNMYLNSFSKNDPNFPILKMNEKLTNDLETSFKDVNYNDKTLAIMIHHALNFHSTTSSMLLKPIISAYLKMSVNGIREIFSCLDILTISDLNILMNDLKVITPSQLPNSVRPILESLTLSPTPVNNIENEEGLNKVEAENDSKLHKASNASSDSIKKPSLDPLREVSFHGSTEVLSKDAEKLIAVDTIGMRVIRHTLLGLSLTPEQKEQISKFKFDANDNVLKMKPTKNDDNNNSINFFEIYNSLPTLEEKKAFESALNIFNQDRQKVLENRATEAARERWKHDFEEAKARGDISIEKNLNVKLWKWYNEMLPLVKEEINHCRSLLSEKLSDKKGLNKVDTNRLGYGPYLTLIDPGKMCVITILELLKLNSTGGVIEGMRTARAVISVGKAIEMEFRSEQVLKSESQAFRDVNKKSPEFKKLVQNAKSVFRSSQIEQSKILWPQSIRARIGSVLISMLIQVAKVSVQGVDPVTKAKVHGEAPAFAHGYQYHNGSKLGVLKIHKTLIRQLNGERLIASVQPQLLPMLVEPKPWVNWRSGGYHYTQSTLLRTKDSPEQVAYLKAASDNGDIDRVYDGLNVLGRTPWTVNRKVFDVVSQVWNKGEGFLDIPGAQDEMVLPPAPPKNSDPSILRAWKLQVKTIANKFSSDRSNRCDTNYKLEIARAFLGEKLYFPHNLDFRGRAYPLSPHFNHLGNDMSRGLLIFWHGKKLGPSGLKWLKIHLSNLFGFDKLPLKDRVAFTESHLQDIKDSAENPLTGDRWWTTADKPWQALATCFELNEVMKMDNPEEFISHQPVHQDGTCNGLQHYAALGGDVEGATQVNLVPSDKPQDVYAHVARLVQKRLEIAAEKGDENAKILKDKITRKVVKQTVMTNVYGVTYVGATFQIAKQLSPIFDDRKESLDFSKYLTKHVFSAIRELFHSAHLIQDWLGESAKRISKSIRLDVDEKSFKNGNKPDFMSSVIWTTPLGLPIVQPYREESKKQVETNLQTVFISDPFAVNPVNARRQKAGLPPNFIHSLDASHMLLSAAECGKQGLDFASVHDSYWTHASDIDTMNVVLREQFIKLHEVDLVLRLKEEFDQRYKNYVKIGKLKRSTDLAQKIIRIRKDLSRKLGRSTTLADEIYFEKKRQELLNSPLIEDRNVGEKMVTTVSLFEDITDLDALELENGGDENSGMSVLLPLRLPEIPPKGDFDVTVLRNSQYFFS
For the molecule B3, the “stoichiometry N” value in test [5] is 1. The Kd came to 4000 nM in test [6] and 20 nM in test [7].
